B1: Mothers against decapentaplegic homolog 4 (Homo sapiens), Q13485 (parent)
chain: MDNMSITNTPTSNDACLSIVHSLMCHRQGGESETFAKRAIESLVKKLKEKKDELDSLITAITTNGAHPSKCVTIQRTLDGRLQVAGRKGFPHVIYARLWRWPDLHKNELKHVKYCQYAFDLKCDSVCVNPYHYERVVSPGIDLSGLTLQSNAPSSMMVKDEYVHDFEGQPSLSTEGHSIQTIQHPPSNRASTETYSTPALLAPSESNATSTANFPNIPVASTSQPASILGGSHSEGLLQIASGPQPGQQQNGFTGQPATYHHNSTTTWTGSRTAPYTPNLPHHQNGHLQHHPPMPPHPGHYWPVHNELAFQPPISNHPAPEYWCSIAYFEMDVQVGETFKVPSSCPIVTVDGYVDPSGGDRFCLGQLSNVHRTEAIERARLHIGKGVQLECKGEGDVWVRCLSDHAVFVQSYYLDREAGRAPGDAVHKIYPSAYIKVFDLRQCHRQMQQQAATAQAAAAAQAAAVAGNIPGPGSVGGIAPAISLSAAAGIGVDDLRRLCILRMSFVKGWGPDYPRQSIKETPCWIEIHLHRALQLLDEVLHTMPIADPQPLD

Variants of: B1
Settings: with etv1_human ETV1, P50549

Variant	effect of a mutation on the interaction
G386D	with no effect

Variants of: B1
Settings: with ezh2_human EZH2, Q15910

Variant	effect of a mutation on the interaction
G386D	with no effect

Variants of: B1
Settings: with fadd_human FADD

Variant	effect of a mutation on the interaction
G386D	with no effect

Variants of: B1
Settings: with facd2_human FANCD2, Q9BXW9

Variant	effect of a mutation on the interaction
G386D	with no effect

Variants of: B1
Settings: with tnr6_human FAS

Variant	effect of a mutation on the interaction
G386D	with no effect

Variants of: B1
Settings: with fgf19_human FGF19, O95750
fgf19_human FGF19, O95750, sequence (O95750 whole entry): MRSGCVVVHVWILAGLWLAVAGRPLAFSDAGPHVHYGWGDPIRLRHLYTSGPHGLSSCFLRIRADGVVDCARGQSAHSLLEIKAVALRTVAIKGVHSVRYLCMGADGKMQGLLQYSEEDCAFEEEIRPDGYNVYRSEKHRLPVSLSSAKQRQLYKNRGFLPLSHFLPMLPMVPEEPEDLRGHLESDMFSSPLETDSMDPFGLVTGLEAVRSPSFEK

Variant	effect of a mutation on the interaction
G386D	with no effect

Variants of: B1
Settings: with fgfr3_human FGFR3, P22607

Variant	effect of a mutation on the interaction
G386D	with no effect

Variants of: B1
Settings: with fgfr4_human FGFR4, P22455

Variant	effect of a mutation on the interaction
G386D	with no effect

Variants of: B1
Settings: with foxo1_human FOXO1, Q12778

Variant	effect of a mutation on the interaction
G386D	with no effect

Variants of: B1
Settings: with foxo3_human FOXO3, O43524
foxo3_human FOXO3, O43524, sequence (O43524 whole entry): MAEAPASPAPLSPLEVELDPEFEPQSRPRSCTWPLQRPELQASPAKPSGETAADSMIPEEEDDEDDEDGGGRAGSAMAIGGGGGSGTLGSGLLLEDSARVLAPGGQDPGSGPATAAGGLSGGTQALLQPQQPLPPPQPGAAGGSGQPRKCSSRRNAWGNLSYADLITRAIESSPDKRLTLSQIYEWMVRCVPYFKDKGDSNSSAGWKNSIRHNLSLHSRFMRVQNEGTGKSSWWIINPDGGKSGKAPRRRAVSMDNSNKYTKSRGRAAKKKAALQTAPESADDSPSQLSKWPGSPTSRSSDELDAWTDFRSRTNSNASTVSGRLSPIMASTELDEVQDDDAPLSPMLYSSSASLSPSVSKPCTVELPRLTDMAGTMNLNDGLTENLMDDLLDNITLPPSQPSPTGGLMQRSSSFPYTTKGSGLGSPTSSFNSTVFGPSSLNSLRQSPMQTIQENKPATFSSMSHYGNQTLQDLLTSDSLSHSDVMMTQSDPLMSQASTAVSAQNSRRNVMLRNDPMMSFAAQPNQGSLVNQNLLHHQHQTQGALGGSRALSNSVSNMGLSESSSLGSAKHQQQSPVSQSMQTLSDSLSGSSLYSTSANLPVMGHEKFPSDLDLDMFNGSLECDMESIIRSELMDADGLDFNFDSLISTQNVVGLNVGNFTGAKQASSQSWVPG

Variant	effect of a mutation on the interaction
G386D	with no effect

Variants of: B1
Settings: with gbra6_human GABRA6, Q16445

Variant	effect of a mutation on the interaction
G386D	with no effect

Variants of: B1
Settings: with gata2_human GATA2, P23769

Variant	effect of a mutation on the interaction
G386D	with no effect

Variants of: B1
Settings: with gata3_human GATA3, P23771

Variant	effect of a mutation on the interaction
G386D	with no effect

Variants of: B1
Settings: with gna11_human GNA11, P29992

Variant	effect of a mutation on the interaction
G386D	with no effect

Variants of: B1
Settings: with gna13_human GNA13, Q14344

Variant	effect of a mutation on the interaction
G386D	with no effect

Variants of: B1
Settings: with gnaq_human GNAQ

Variant	effect of a mutation on the interaction
G386D	with no effect

Variants of: B1
Settings: with grm1_human GRM1, Q13255

Variant	effect of a mutation on the interaction
G386D	with no effect

Variants of: B1
Settings: with grm3_human GRM3, Q14832

Variant	effect of a mutation on the interaction
G386D	with no effect

Variants of: B1
Settings: with gsk3a_human GSK3A

Variant	effect of a mutation on the interaction
G386D	with no effect

Variants of: B1
Settings: with gsk3b_human GSK3B

Variant	effect of a mutation on the interaction
G386D	with no effect

Variants of: B1
Settings: with hdac1_human HDAC1, Q13547

Variant	effect of a mutation on the interaction
G386D	with no effect

Variants of: B1
Settings: with hdac3_human HDAC3, O15379

Variant	effect of a mutation on the interaction
G386D	with no effect

Variants of: B1
Settings: with hgf_human HGF

Variant	effect of a mutation on the interaction
G386D	with no effect

Variants of: B1
Settings: with hif1a_human HIF1A

Variant	effect of a mutation on the interaction
G386D	with no effect

Variants of: B1
Settings: with h31_human H3C1, P68431

Variant	effect of a mutation on the interaction
G386D	with no effect

Variants of: B1
Settings: with hlab_human HLA-B

Variant	effect of a mutation on the interaction
G386D	with no effect

Variants of: B1
Settings: with hnf1a_human HNF1A

Variant	effect of a mutation on the interaction
G386D	with no effect

Variants of: B1
Settings: with rash_human HRAS

Variant	effect of a mutation on the interaction
G386D	with no effect

Variants of: B1
Settings: with hs90a_human HSP90AA1, P07900

Variant	effect of a mutation on the interaction
G386D	with no effect

Variants of: B1
Settings: with igf2_human IGF2, P01344

Variant	effect of a mutation on the interaction
G386D	with no effect

Variants of: B1
Settings: with il7ra_human IL7R

Variant	effect of a mutation on the interaction
G386D	with no effect

Variants of: B1
Settings: with int12_human INTS12, Q96CB8

Variant	effect of a mutation on the interaction
G386D	with no effect

Variants of: B1
Settings: with irf6_human IRF6, O14896

Variant	effect of a mutation on the interaction
G386D	with no effect

Variants of: B1
Settings: with irs1_human IRS1, P35568

Variant	effect of a mutation on the interaction
G386D	with no effect

Variants of: B1
Settings: with ist1_human IST1, P53990
ist1_human IST1, P53990, sequence (P53990 whole entry): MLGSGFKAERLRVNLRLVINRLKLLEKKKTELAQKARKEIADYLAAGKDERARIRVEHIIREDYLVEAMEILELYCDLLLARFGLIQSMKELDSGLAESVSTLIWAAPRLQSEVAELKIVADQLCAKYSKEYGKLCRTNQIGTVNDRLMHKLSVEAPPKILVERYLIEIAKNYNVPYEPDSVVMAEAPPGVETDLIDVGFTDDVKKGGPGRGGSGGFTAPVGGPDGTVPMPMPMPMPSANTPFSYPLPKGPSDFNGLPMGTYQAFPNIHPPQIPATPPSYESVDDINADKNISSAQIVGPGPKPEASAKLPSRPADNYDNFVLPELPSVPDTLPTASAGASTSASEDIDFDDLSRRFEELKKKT

Variant	effect of a mutation on the interaction
G386D	with no effect

Variants of: B1
Settings: with jak1_human JAK1, P23458

Variant	effect of a mutation on the interaction
G386D	with no effect

Variants of: B1
Settings: with jak3_human JAK3, P52333

Variant	effect of a mutation on the interaction
G386D	with no effect

Variants of: B1
Settings: with kat2a_human KAT2A

Variant	effect of a mutation on the interaction
G386D	with no effect

Variants of: B1
Settings: with kdm5c_human KDM5C

Variant	effect of a mutation on the interaction
G386D	with no effect

Variants of: B1
Settings: with kdm6a_human KDM6A

Variant	effect of a mutation on the interaction
G386D	with no effect

Variants of: B1
Settings: with vgfr2_human KDR

Variant	effect of a mutation on the interaction
G386D	with no effect

Variants of: B1
Settings: with keap1_human KEAP1, Q14145
keap1_human KEAP1, Q14145, sequence (Q14145 whole entry): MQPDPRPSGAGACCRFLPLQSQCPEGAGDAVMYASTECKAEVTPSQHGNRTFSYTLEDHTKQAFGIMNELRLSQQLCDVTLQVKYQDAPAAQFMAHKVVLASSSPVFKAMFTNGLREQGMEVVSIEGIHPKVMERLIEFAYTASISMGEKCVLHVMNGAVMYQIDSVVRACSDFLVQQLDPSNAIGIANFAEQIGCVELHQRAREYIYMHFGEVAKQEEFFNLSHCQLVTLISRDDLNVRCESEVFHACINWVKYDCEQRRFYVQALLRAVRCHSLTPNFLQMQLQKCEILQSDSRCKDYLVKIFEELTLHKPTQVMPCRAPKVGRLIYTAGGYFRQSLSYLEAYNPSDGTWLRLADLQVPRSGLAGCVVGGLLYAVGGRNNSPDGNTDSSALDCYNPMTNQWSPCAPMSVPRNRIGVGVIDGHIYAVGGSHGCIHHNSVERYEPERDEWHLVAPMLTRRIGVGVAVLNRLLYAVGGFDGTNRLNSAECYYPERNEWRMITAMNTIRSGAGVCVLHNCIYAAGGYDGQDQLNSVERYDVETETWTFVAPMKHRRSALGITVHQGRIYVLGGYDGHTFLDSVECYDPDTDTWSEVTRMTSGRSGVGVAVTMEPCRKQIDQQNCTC

Variant	effect of a mutation on the interaction
G386D	with no effect

Variants of: B1
Settings: with klf4_human KLF4, O43474
klf4_human KLF4, O43474, sequence (O43474 whole entry): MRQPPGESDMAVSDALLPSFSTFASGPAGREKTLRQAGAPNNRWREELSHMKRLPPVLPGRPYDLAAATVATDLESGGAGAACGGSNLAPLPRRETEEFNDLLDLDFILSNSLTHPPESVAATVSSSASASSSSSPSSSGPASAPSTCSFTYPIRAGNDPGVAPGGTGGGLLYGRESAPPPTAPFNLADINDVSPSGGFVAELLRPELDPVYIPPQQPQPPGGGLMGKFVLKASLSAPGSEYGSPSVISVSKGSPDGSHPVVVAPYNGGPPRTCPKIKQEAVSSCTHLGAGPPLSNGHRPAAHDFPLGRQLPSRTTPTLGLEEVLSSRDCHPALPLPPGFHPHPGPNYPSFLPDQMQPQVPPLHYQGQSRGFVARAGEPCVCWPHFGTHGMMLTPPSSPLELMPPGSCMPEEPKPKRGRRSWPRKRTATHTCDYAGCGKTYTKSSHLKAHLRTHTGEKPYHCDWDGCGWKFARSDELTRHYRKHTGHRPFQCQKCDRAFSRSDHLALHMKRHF

Variant	effect of a mutation on the interaction
G386D	with no effect

Variants of: B1
Settings: with lims1_human LIMS1, P48059

Variant	effect of a mutation on the interaction
G386D	with no effect

Variants of: B1
Settings: with maga6_human MAGEA6, P43360
maga6_human MAGEA6, P43360, sequence (P43360 whole entry): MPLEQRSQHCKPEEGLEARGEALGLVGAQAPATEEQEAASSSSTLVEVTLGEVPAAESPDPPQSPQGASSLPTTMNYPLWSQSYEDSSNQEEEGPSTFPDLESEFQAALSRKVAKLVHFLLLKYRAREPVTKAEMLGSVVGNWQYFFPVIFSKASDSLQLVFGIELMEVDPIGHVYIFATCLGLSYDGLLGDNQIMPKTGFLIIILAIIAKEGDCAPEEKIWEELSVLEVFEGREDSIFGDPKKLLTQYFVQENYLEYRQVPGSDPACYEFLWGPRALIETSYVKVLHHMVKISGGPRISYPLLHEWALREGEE

Variant	effect of a mutation on the interaction
G386D	with no effect

Variants of: B1
Settings: with mp2k7_human MAP2K7, O14733

Variant	effect of a mutation on the interaction
G386D	with no effect

Variants of: B1
Settings: with m3k1_human MAP3K1, Q13233

Variant	effect of a mutation on the interaction
G386D	with no effect

Variants of: B1
Settings: with m3k5_human MAP3K5, Q99683

Variant	effect of a mutation on the interaction
G386D	with no effect

Variants of: B1
Settings: with mk10_human MAPK10, P53779

Variant	effect of a mutation on the interaction
G386D	with no effect

Variants of: B1
Settings: with mk14_human MAPK14, Q16539

Variant	effect of a mutation on the interaction
G386D	with no effect

Variants of: B1
Settings: with mk03_human MAPK3, P27361

Variant	effect of a mutation on the interaction
G386D	with no effect

Variants of: B1
Settings: with mk04_human MAPK4, P31152
mk04_human MAPK4, P31152, sequence (P31152 whole entry): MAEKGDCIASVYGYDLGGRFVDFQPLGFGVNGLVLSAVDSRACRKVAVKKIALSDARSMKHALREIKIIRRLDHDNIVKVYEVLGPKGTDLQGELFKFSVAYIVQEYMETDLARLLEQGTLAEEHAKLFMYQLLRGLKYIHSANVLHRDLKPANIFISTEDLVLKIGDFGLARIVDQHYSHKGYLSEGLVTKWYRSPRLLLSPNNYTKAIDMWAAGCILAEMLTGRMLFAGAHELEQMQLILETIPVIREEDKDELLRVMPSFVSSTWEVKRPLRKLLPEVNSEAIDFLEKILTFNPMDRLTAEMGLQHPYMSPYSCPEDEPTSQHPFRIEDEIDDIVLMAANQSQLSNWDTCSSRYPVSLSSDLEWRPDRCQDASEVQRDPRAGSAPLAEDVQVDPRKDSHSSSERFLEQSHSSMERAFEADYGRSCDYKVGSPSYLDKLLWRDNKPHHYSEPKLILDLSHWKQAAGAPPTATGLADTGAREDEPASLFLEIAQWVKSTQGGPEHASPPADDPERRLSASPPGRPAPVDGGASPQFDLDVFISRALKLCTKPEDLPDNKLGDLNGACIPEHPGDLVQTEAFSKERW

Variant	effect of a mutation on the interaction
G386D	with no effect

Variants of: B1
Settings: with mk06_human MAPK6, Q16659

Variant	effect of a mutation on the interaction
G386D	with no effect

Variants of: B1
Settings: with mk07_human MAPK7, Q13164

Variant	effect of a mutation on the interaction
G386D	with no effect

Variants of: B1
Settings: with mcl1_human MCL1, Q07820
mcl1_human MCL1, Q07820, sequence (Q07820 whole entry): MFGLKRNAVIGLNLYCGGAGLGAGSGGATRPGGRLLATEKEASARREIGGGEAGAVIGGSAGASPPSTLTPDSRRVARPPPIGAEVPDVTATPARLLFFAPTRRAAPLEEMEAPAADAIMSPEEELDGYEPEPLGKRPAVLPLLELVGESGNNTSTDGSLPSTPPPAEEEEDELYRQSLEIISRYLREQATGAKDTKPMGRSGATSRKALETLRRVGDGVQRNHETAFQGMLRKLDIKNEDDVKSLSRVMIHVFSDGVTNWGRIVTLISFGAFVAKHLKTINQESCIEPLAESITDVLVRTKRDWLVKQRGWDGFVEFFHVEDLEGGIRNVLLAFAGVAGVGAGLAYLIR

Variant	effect of a mutation on the interaction
G386D	with no effect

Variants of: B1
Settings: with mitf_human MITF

Variant	effect of a mutation on the interaction
G386D	with no effect

Variants of: B1
Settings: with mtor_human MTOR

Variant	effect of a mutation on the interaction
G386D	with no effect

Variants of: B1
Settings: with myc_human MYC

Variant	effect of a mutation on the interaction
G386D	with no effect

Variants of: B1
Settings: with nf1_human NF1, P21359

Variant	effect of a mutation on the interaction
G386D	with no effect

Variants of: B1
Settings: with merl_human NF2, P35240

Variant	effect of a mutation on the interaction
G386D	with no effect

Variants of: B1
Settings: with nfic_human NFIC

Variant	effect of a mutation on the interaction
G386D	with no effect

Variants of: B1
Settings: with ikba_human NFKBIA

Variant	effect of a mutation on the interaction
G386D	with no effect

Variants of: B1
Settings: with notc2_human NOTCH2, Q04721

Variant	effect of a mutation on the interaction
G386D	with no effect

Variants of: B1
Settings: with nox1_human NOX1, Q9Y5S8

Variant	effect of a mutation on the interaction
G386D	with no effect

Variants of: B1
Settings: with ntrk2_human NTRK2, Q16620

Variant	effect of a mutation on the interaction
G386D	with no effect

Variants of: B1
Settings: with pak3_human PAK3, O75914
pak3_human PAK3, O75914, sequence (O75914 whole entry, looked up): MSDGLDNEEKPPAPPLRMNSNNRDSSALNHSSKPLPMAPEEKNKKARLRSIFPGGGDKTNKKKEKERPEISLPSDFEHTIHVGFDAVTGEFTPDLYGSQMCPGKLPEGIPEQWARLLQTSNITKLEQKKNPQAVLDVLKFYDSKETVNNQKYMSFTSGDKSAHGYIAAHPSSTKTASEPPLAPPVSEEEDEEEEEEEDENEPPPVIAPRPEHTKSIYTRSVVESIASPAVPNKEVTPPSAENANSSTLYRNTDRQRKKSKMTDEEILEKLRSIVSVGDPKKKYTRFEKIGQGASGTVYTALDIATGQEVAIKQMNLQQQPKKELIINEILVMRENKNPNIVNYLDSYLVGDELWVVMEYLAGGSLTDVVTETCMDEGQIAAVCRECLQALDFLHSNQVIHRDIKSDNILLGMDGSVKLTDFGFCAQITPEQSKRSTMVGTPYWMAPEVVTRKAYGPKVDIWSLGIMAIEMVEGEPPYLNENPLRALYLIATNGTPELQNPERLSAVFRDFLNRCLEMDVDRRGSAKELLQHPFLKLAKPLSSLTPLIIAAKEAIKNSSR

Variant	effect of a mutation on the interaction
G386D	with no effect

Variants of: B1
Settings: with prkn_human PRKN

Variant	effect of a mutation on the interaction
G386D	with no effect

Variants of: B1
Settings: with pax5_human PAX5, Q02548

Variant	effect of a mutation on the interaction
G386D	with no effect

Variants of: B1
Settings: with pax9_human PAX9, P55771

Variant	effect of a mutation on the interaction
G386D	with no effect

Variants of: B1
Settings: with pb1_human PBRM1, Q86U86

Variant	effect of a mutation on the interaction
G386D	with no effect

Variants of: B1
Settings: with pcbp1_human PCBP1, Q15365

Variant	effect of a mutation on the interaction
G386D	with no effect

Variants of: B1
Settings: with pgfra_human PDGFRA

Variant	effect of a mutation on the interaction
G386D	with no effect

Variants of: B1
Settings: with pgfrb_human PDGFRB

Variant	effect of a mutation on the interaction
G386D	with no effect

Variants of: B1
Settings: with pdk1_human PDK1, Q15118

Variant	effect of a mutation on the interaction
G386D	with no effect

Variants of: B1
Settings: with PIK3C2B

Variant	effect of a mutation on the interaction
G386D	with no effect

Variants of: B1
Settings: with pk3c3_human PIK3C3, Q8NEB9

Variant	effect of a mutation on the interaction
G386D	with no effect

Variants of: B1
Settings: with pk3ca_human PIK3CA

Variant	effect of a mutation on the interaction
G386D	with no effect

Variants of: B1
Settings: with pk3cb_human PIK3CB

Variant	effect of a mutation on the interaction
G386D	with no effect

Variants of: B1
Settings: with pk3cg_human PIK3CG

Variant	effect of a mutation on the interaction
G386D	with no effect

Variants of: B1
Settings: with p85a_human PIK3R1, P27986
p85a_human PIK3R1, P27986, sequence (P27986 whole entry): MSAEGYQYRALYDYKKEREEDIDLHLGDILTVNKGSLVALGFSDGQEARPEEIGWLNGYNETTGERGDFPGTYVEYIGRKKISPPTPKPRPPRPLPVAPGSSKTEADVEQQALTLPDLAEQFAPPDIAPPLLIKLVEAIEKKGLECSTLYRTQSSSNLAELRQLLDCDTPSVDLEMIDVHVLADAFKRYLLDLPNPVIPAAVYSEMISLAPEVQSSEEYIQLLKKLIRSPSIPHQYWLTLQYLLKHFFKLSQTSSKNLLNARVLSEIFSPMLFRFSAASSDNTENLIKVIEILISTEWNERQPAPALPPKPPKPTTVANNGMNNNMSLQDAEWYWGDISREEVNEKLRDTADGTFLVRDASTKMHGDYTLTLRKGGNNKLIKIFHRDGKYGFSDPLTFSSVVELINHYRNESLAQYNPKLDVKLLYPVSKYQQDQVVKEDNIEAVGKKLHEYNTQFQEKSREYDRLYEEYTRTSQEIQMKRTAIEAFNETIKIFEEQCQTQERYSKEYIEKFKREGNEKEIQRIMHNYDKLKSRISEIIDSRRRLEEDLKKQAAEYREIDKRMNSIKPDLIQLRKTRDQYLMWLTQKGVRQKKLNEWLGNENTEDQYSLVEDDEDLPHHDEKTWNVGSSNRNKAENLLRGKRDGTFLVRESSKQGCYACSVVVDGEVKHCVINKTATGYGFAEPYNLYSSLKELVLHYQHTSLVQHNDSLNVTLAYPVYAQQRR

Variant	effect of a mutation on the interaction
G386D	with no effect

From IntAct's records for PubMed 35512704
